Tests used:
[1] = target: HA of H5N1 A/Viet Nam/1203/04 (influenza A virus H5N1 A/Viet Nam/1203/04); experiment: cell-based or functional assay
[2] = target: H5-HA (Table 7) (influenza A virus, H5 subtype, strain not stated); experiment: ELISA on baculovirus-derived recombinant HA
[3] = target: H7-HA (Table 7) (influenza A virus, H7 subtype, strain not stated); experiment: ELISA on baculovirus-derived recombinant HA
[4] = target: HA of H9 A/HK/1073/99 (influenza A virus H9N2 A/Hong Kong/1073/99); experiment: ELISA on HA
[5] = target: HA of H5N1 A/Viet Nam/1203/04 (influenza A virus H5N1 A/Viet Nam/1203/04); experiment: ELISA on HA
[6] = target: HA of H6N5 A/shearwater/Australia/1/72 (influenza A virus H6N5 A/shearwater/Australia/1/72); experiment: ELISA on recombinant or purified HA
[7] = target: HA of H10N4 A/mink/Sweded/3900/84 (influenza A virus H10N4 A/mink/Sweded/3900/84); experiment: ELISA on recombinant or purified HA
[8] = target: HA of H8N4 A/Alberta/357/84 (influenza A virus H8N4 A/Alberta/357/84); experiment: ELISA on recombinant or purified HA
[9] = target: HA of H9 A/HK/1073/99 (influenza A virus H9N2 A/Hong Kong/1073/99); experiment: ELISA on recombinant or purified HA
[10] = target: HA of H7N3 A/Canada/444/04 (influenza A virus H7N3 A/Canada/444/04); experiment: ELISA on recombinant or purified HA
[11] = target: HA of H5N1 A/Viet Nam/1/05 (influenza A virus H5N1 A/Viet Nam/1/05); experiment: ELISA on recombinant or purified HA
[12] = target: HA of H5N1 A/Viet Nam/1203/04 (influenza A virus H5N1 A/Viet Nam/1203/04); experiment: ELISA on recombinant or purified HA

B1: FI6 variant 2 (antibody, V domains shown)
VH: QVQLVQSGGGVVQPGRSLRLSCVASGFTFSTYAMHWVRQAPGRGLEWVAVISYDGNYKYYADSVKGRFSISRDNSNNTLHLEMNTLRTEDTALYYCAKDSQLRSLLYFEWLSQGYFDPWGQGTLVTVTS
VL: DIQMTQSPDSLAVSLGARATINCKSSQSVTFNYKNYLAWYQQKPGQPPKVLIYWASARESGVPDRFSGSGSGTDFTLTISSLQAEDVAVYYCQQHYRTPPTFGQGTKVEIK
With B1 as the binder, how does the Neutralization of HA-pseudotypes (IC90, µg/ml) [1] read?
The Neutralization of HA-pseudotypes (IC90, µg/ml) was 0.02 µg/mL.

What about the EC50 [2] of the same binder?
The EC50 was 0.0145 µg/mL.

And the EC50 [3]?
Its EC50 is 0.0314 µg/mL.

And the Binding to HA by ELISA (% of subtype specific control antibodies) [4]?
Its Binding to HA by ELISA (% of subtype specific control antibodies) is 98.7%.

And the Binding to HA by ELISA (% of subtype specific control antibodies) [5]?
Its Binding to HA by ELISA (% of subtype specific control antibodies) is 73.7%.

What about the EC50 [6] of the same binder?
Its EC50 is 0.041 µg/mL.

What about the EC50 [7] of the same binder?
The EC50 was 0.09 µg/mL.

What about the EC50 [8] of the same binder?
Its EC50 is 0.033 µg/mL.

What about the EC50 [9] of the same binder?
Its EC50 is 0.014 µg/mL.

And the EC50 [10]?
The EC50 was 0.033 µg/mL.

What about the EC50 [11] of the same binder?
Its EC50 is 0.01 µg/mL.

And the EC50 [12]?
The EC50 was 0.014 µg/mL.

B2: FI28 variant 1 (antibody, V domains shown)
VH: EVQLVESGGGAVQPGESLKLSCAASGFTFSNYGMHWVRQAPGKGLEWVAVISYDGSNKYYADSVKGRFTISRDNSKDTLYLQMNSLRAEDTALFYCAKERPLRLLRYFDWLSGGANDYWGQGTLVTVSS
VL: DIVMTQSPDSLAVSLGERATINCKSSQSVLYSSNNKNYLAWYQQKPGQPPKLLIDWASTRESGVPDRFSGSGSGTDFTLTISNLQVEDVAVYYCQQYYRSPSFGQGTKLEIK
With B2 as the binder, how does the Neutralization of HA-pseudotypes (IC90, µg/ml) [1] read?
Its Neutralization of HA-pseudotypes (IC90, µg/ml) is 0.02 µg/mL.

And the Binding to HA by ELISA (% of subtype specific control antibodies) [4]?
Its Binding to HA by ELISA (% of subtype specific control antibodies) is 87.7%.

And the Binding to HA by ELISA (% of subtype specific control antibodies) [5]?
The Binding to HA by ELISA (% of subtype specific control antibodies) was 46.3%.
